The record followed here is US20240352118A1.

The term Kd denotes the constant that tells how readily two partners part at equilibrium. A higher Kd goes with lower affinity. As a reminder, the IC50 is the concentration at which inhibition is half-maximal. The low end stands for greater potency, the high end for weaker potency. One may read the EC50 as the concentration needed to bring the measured effect to its halfway point.

The target in assay [1] is human TIGIT-his protein (human) (UniProt Q495A1). The assay is described as follows: BLI (ForteBio), IgG on AHQ sensor, 100 nM TIGIT-his, monovalent, 1:1 model.
Chain of human TIGIT-his protein (human) (Q495A1 22-141): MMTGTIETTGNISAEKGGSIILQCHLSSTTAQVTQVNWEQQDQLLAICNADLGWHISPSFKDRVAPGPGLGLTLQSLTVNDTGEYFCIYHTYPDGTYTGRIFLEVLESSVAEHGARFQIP
The target in assay [2] is cynomolgus TIGIT-his protein (cynomolgus monkey). Described as above.
Chain of cynomolgus TIGIT-his protein (cynomolgus monkey) (chain, as listed by the source): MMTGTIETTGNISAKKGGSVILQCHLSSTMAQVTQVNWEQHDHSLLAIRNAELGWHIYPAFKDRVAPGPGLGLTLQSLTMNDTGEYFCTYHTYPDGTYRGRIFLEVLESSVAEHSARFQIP
The target in assay [3] is human TIGIT on cells (human) (UniProt Q495A1). The assay is described as follows: flow cytometry, blocking of human CD155-mouse IgG2a Fc (2 ug/mL) binding to CHO-huTIGIT cells. (In flow cytometry, cells or beads pass a laser one at a time.)
Chain of human TIGIT on cells (human) (Q495A1 22-244): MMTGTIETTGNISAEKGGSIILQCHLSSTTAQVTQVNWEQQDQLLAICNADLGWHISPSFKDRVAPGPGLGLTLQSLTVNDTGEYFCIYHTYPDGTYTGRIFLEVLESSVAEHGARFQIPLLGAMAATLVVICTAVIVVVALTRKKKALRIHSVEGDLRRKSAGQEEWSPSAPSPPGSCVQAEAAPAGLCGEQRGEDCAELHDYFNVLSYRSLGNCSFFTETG
The target is the same in assay [4]. The assay is described as follows: flow cytometry on CHO-huTIGIT cells.
Assay [5] addresses cynomolgus TIGIT on cells (cynomolgus monkey). The assay is described as follows: flow cytometry on CHO-cynoTIGIT cells.
In assay [6] the target is human TIGIT on cells (human) (UniProt Q495A1). The assay is described as follows: flow cytometry on activated human primary T cells (CD3/CD28 beads + IL-2, 48 h), fluorescent secondary antibody; y axis Positive cells(%), x axis Concentration(nM); EC50 from the table drawn under the curves.

Chain of cynomolgus TIGIT on cells (cynomolgus monkey) (chain, as listed by the source): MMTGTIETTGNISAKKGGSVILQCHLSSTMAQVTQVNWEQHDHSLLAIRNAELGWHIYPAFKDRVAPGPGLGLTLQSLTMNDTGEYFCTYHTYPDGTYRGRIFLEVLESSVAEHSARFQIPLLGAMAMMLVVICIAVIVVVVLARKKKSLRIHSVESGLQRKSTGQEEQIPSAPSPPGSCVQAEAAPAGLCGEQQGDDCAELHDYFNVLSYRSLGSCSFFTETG

As for Tiragolumab (antibody), the equilibrium dissociation constant (Kd) was determined as 0.87 nM in assay [1] and 3.5 nM in assay [2]. In assay [3], this substance came in with an IC50 of 0.63 nM. Also, the values for the EC50 in assay [4], in assay [5] and in assay [6] were 1.35 nM, 4.18 nM and 0.274 nM, respectively.
